Data taken from publication doi:10.1101/2023.02.02.526913.
Read-outs that look alike come from different tables or passages of the source.

Key:
Experiment in all cases: cryo-EM structure
[1] = molecular target: microtubules prepared from porcine brain tubulin (porcine) (UniProt P02550)
[2] = molecular target: microtubules prepared from porcine brain tubulin (porcine) (UniProt P02550); remark: listed apart in the source
[3] = molecular target: microtubules prepared from porcine brain tubulin (porcine) (UniProt P02550); remark: listed apart in the source

Sequence of UniProt P02550 (P02550 whole entry, chain 1 of 2): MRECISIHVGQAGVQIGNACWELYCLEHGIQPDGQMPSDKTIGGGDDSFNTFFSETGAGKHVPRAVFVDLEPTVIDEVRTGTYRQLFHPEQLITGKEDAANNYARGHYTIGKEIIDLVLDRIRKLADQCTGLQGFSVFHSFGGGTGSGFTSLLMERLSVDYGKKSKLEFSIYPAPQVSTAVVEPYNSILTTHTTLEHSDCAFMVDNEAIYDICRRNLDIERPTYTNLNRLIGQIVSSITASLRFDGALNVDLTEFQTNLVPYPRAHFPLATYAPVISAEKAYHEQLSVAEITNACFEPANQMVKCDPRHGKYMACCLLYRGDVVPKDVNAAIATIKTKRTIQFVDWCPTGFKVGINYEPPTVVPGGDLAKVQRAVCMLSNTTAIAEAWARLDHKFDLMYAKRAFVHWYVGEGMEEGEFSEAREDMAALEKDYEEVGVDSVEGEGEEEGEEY
Sequence of UniProt P02550 (P02554 whole entry, chain 2 of 2, further chain): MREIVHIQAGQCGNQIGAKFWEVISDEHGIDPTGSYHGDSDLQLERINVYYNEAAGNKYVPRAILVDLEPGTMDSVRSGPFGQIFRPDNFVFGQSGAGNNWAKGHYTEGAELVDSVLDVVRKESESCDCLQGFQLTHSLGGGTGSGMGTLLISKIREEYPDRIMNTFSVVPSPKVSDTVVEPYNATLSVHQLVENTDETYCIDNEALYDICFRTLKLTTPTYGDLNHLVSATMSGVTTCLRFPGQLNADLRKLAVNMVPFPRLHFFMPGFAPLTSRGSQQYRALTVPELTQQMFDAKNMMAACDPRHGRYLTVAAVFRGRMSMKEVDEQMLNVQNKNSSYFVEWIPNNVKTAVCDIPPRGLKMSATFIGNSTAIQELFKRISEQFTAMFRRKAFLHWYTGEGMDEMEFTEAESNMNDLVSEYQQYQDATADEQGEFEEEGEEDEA

## KIF1A(aa1-393)-LZ-strepII (from UniProt Q12756 1-393) (domain or fragment)
[1]
  decorated fraction of the kinesin sites on tubulin: 32%
[2]
  decorated fraction of the kinesin sites on tubulin: 74%

## KIF1A^P305L (KIF1A(aa1-393, P305L)-LZ-strepII) (from UniProt Q12756 1-393) (domain or fragment)
[1]
  decorated fraction of the kinesin sites on tubulin: 25%
[3]
  decorated fraction of the kinesin sites on tubulin: 9%
